± gives the standard deviation of the averaged measurements.
Experiment: total protein half-life in vivo (active degradation + dilution); higher = more stable protein
[1] = E. coli NCM3722 delta-clpP delta-lon delta-hslV, growth: N-lim chemostat, doubling time 6 h
[2] = E. coli NCM3722 delta-clpP, growth: N-lim chemostat, doubling time 6 h
[3] = E. coli NCM3722 delta-hslV, growth: N-lim chemostat, doubling time 6 h
[4] = E. coli NCM3722 delta-lon, growth: N-lim chemostat, doubling time 6 h
[5] = E. coli NCM3722 delta-smpB, growth: N-lim chemostat, doubling time 6 h
[6] = wild type E. coli NCM3722, growth: C-lim chemostat, doubling time 3 h
[7] = wild type E. coli NCM3722, growth: C-lim chemostat, doubling time 6 h
[8] = wild type E. coli NCM3722, growth: C-lim chemostat, doubling time 12 h
[9] = wild type E. coli NCM3722, growth: N-lim chemostat, doubling time 6 h
[10] = wild type E. coli NCM3722, growth: N-lim chemostat, doubling time 12 h
[11] = wild type E. coli NCM3722, growth: P-lim chemostat, doubling time 6 h
[12] = wild type E. coli NCM3722, growth: P-lim chemostat, doubling time 12 h

Row | Sequence | total protein half-life in vivo [1] | total protein half-life in vivo [2] | total protein half-life in vivo [3] | total protein half-life in vivo [4] | total protein half-life in vivo [5] | total protein half-life in vivo [6] | total protein half-life in vivo [7] | total protein half-life in vivo [8] | total protein half-life in vivo [9] | total protein half-life in vivo [10] | total protein half-life in vivo [11] | total protein half-life in vivo [12]
1 | MHPTGPHLGPDVLFRESNMKVTLTFNEQRRAAYRQQGLWGDASLADYWQQTARAMPDKIAVVDNHGASYTYSALDHAASCLANWMLAKGIESGDRIAFQLPGWCEFTVIYLACLKIGAVSVPLLPSWREAELVWVLNKCQAKMFFAPTLFKQTRPVDLILPLQNQLPQLQQIVGVDKLAPATSSLSLSQIIADNTSLTTAITTHGDELAAVLFTSGTEGLPKGVMLTHNNILASERAYCARLNLTWQDVFMMPAPLGHATGFLHGVTAPFLIGARSVLLDIFTPDACLALLEQQRCTCMLGATPFVYDLLNVLEKQPADLSALRFFLCGGTTIPKKVARECQQRGIKLLSVYGSTESSPHAVVNLDDPLSRFMHTDGYAAAGVEIKVVDDARKTLPPGCEGEEASRGPNVFMGYFDEPELTARALDEEGWYYSGDLCRMDEAGYIKITGRKKDIIVRGGENISSREVEDILLQHPKIHDACVVAMSDERLGERSCAYVVLKAPHHSLSLEEVVAFFSRKRVAKYKYPEHIVVIEKLPRTTSGKIQKFLLRKDIMRRLTQDVCEEIE | 7.05 h |  |  |  |  |  |  |  |  |  |  | 
2 | MHQSGSVSLCRSAISVLVATALYSPIALASTVEYGETVDGVVLEKDIQLVYGTANNTKINPGGEQHIKEFGVSNNTEINGGYQYIEMNGAAEYSVLNDGYQIVQMGGAANQTTLNNGVLQVYGAANDTTIKGGRLIVEKDGGAVFVAIEKGGLLEVKEGGFAFAVDQKAGGAIKTTTRAMEVFGTNRLGQFDIKNGIANNMLLENGGSLRVEENDFAYNTTVDSGGLLEVMDGGTVTGVDKKAGGKLIVSTNALEVSGPNSKGQFSIKDGVSKNYELDDGSGLIVMEDTQAIDTILDKHATMQSLGKDTGTKVQANAVYDLGRSYQNGSITYSSKAISENMVINNGRANVWAGTMVNVSVRGNDGILEVMKPQINYAPAMLVGKVVVSEGASFRTHGAVDTSKADVSLENSVWTIIADITTTNQNTLLNLANLAMSDANVIMMDEPVTRSSVTASAENFITLTTNTLSGNGNFYMRTDMANHQSDQLNVTGQATGDFKIFVTDTGASPAAGDSLTLVTTGGGDAAFTLGNAGGVVDIGTYEYTLLDNGNHSWSLAENRAQITPSTTDVLNMAAAQPLVFDAELDTVRERLGSVKGVSYDTAMWSSAINTRNNVTTDAGAGFEQTLTGLTLGIDSRFSREESSTIRGLIFGYSHSDIGFDRGGKGNIDSYTLGAYAGWEHQNGAYVDGVVKVDRFANTIHGKMSNGATAFGDYNSNGAGAHVESGFRWVDGLWSVRPYLAFTGFTTDGQDYTLSNGMRADVGNTRILRAEAGTAVSYHMDLQNGTTLEPWLKAAVRQEYADSNQVKVNDDGKFNNDVAGTSGVYQAGIRSSFTPTLSGHLSVSYGNGAGVESPWNTQAGVVWTF | 5.12 h |  |  |  |  |  |  |  |  |  |  | 
3 | MHQVVCATTNPAKIQAILQAFHEIFGEGSCHIASVAVESGVPEQPFGSEETRAGARNRVANARRLLPEADFWVAIEAGIDGDSTFSWVVIENASQRGEARSATLPLPAVILEKVREGEALGPVMSRYTGIDEIGRKEGAIGVFTAGKLTRASVYHQAVILALSPFHNAVY | 4.71 ± 0.46 h | 3.828 ± 0.038 h | 3.608 ± 0.012 h | 4.01 ± 0.27 h | 3.57 ± 0.16 h | 2.81 ± 0.067 h | 5.02 ± 0.2 h | 8.17 ± 0.45 h | 3.92 h | 5.34 ± 0.057 h | 5.38 ± 0.72 h | 10.9 ± 2 h
4 | MHRILAEKSVNITELRKNPAKYFIDQPVAVLSNNRPAGYLLSASAFEALMDMLAEQEEKKPIKARFRPSAARLEEITRRAEQYLNDMTDDDFNDFKE | 6.12 ± 0.86 h | 3.91 h |  |  |  |  |  |  |  |  |  | 4.58 h
5 | MHSTEVQAKPLFSWKALGWALLYFWFFSTLLQAIIYISGYSGTNGIRDSLLFSSLWLIPVFLFPKRIKIIAAVIGVVLWAASLAALCYYVIYGQEFSQSVLFVMFETNTNEASEYLSQYFSLKIVLIALAYTAVAVLLWTRLRPVYIPKPWRYVVSFALLYGLILHPIAMNTFIKNKPFEKTLDNLASRMEPAAPWQFLTGYYQYRQQLNSLTKLLNENNALPPLANFKDESGNEPRTLVLVIGESTQRGRMSLYGYPRETTPELDALHKTDPNLTVFNNVVTSRPYTIEILQQALTFANEKNPDLYLTQPSLMNMMKQAGYKTFWITNQQTMTARNTMLTVFSRQTDKQYYMNQQRTQSAREYDTNVLKPFQEVLNDPAPKKLIIVHLLGTHIKYKYRYPENQGKFDGNTDHVPPGLNAEELESYNDYDNANLYNDHVVASLIKDFKAANPNGFLVYFSDHGEEVYDTPPHKTQGRNEDNPTRHMYTIPFLLWTSEKWQATHPRDFSQDVDRKYSLAELIHTWSDLAGLSYDGYDPTRSVVNPQFKETTRWIGNPYKKNALIDYDTLPYGDQVGNQ [P0CB39] | 6.57 ± 0.15 h | 7 ± 0.21 h |  | 6.52 ± 1.3 h | 6.49 ± 0.29 h | 3.504 ± 0.028 h | 6.41 ± 0.11 h | 13 ± 0.88 h | 6.03 ± 0.069 h | 13 ± 0.74 h | 6.4 ± 0.18 h | 13.1 ± 0.49 h
6 | MHVKYLAGIVGAALLMAGCSSSNELSAAGQSVRIVDEQPGAECQLIGTATGKQSNWLSGQHGEEGGSMRGAANDLRNQAAAMGGNVIYGISSPSQGMLSSFVPTDSQIIGQVYKCPN [P0AF70] | 6.05 h | 6.18 ± 0.3 h | 6.86 h | 6.39 h |  | 3.19 ± 0.049 h | 5.95 ± 0.4 h | 10.7 ± 0.76 h | 7.12 h | 12.9 ± 0.69 h | 6.01 ± 0.24 h | 11.7 ± 0.94 h
7 | MHVTLVEINVHEDKVDEFIEVFRQNHLGSVQEEGNLRFDVLQDPEVNSRFYIYEAYKDEDAVAFHKTTPHYKTCVAKLESLMTGPRKKRLFNGLMP | 4.55 ± 0.72 h | 2.71 h | > 8 h | 3 ± 0.2 h |  | 2.49 ± 0.49 h | 3.66 ± 0.24 h | 3.93 ± 0.26 h | 2.69 h | 4.86 h |  | 

— the supplement of paper PMC11246515
